# B1: monoclonal antibody AN-LP1 produced by the hybridoma CNCM I-3794 (antibody, V domains shown)
# VH: EVQLEESGGGLVQPGGSLKLSCAASGFTFSRYSMSWVRQTPEKRLEWVAYISDGGGSTYSPDTVKGRFSISRDNAQNTLYLQMSSLKSEDTAIFYCVRHARLEGYFDVWGAGTSVTVSS
# VL: DVLTQSPASVAVSLGQRATISCRASESVDNYGNSFMNWYQQKPGQPPKLLIYRASNLESGIPARFSGSGSRTDFTLTINPVEADDVATYYCQQSNEDPTFGGGTKLEIKR
# notes: also called AN-LP1 mAb; mAb AN-LP1
# Columns and labels:
# [1] = target: T1, irrelevant peptide PELAPVSSNLKYTLDC; assay: ELISA on coated irrelevant peptide, anti-mouse peroxidase, ABTS, read at 405 nm
# T1 construct: Negative control in the ELISA; also called control peptide
# T1 peptide: PELAPVSSNLKYTLDC
# Protocol: The hepcidin binding properties of AN-LP1 produced by hybridoma CNCM I-3794 were tested by ELISA. Synthetic human hepcidin-25 was coated on 96-well boxes, with a concentration of 1-10 microgram/ml in 100 mM carbonate buffer, pH 9.5. One part of the wells is coated with an irrelevant peptide ([…], SEQ ID NO: 10) to be able to determine the specific component of measured signal. After one night of contact, the wells are washed 3 times with a solution of PBS/0.05% tween 20, then saturated with a solution of 0.1M Tris 20%, sucrose pH 7.8. The mouse serums are added in duplicates, with 10-fold serial dilutions. After a 6 h incubation, the wells were washed three times with a solution of PBS 0.05%, tween 20 and an anti-mouse antibody coupled with peroxidase (Biosource) diluted to 1/5,000 in PBS, 0.1% BSA, 0.01% Tween 20 was added for an additional 1 h30-2 h.
# synthetic mouse hepcidin = target: T2, synthetic mouse hepcidin (mouse, UniProt Q9EQ21 59-83); assay: dot blot on nitrocellulose, antibody 1:200, HRP secondary antibody, ECL
# T2 construct: mature; also called murine hepcidin-25
# T2 peptide (looked up): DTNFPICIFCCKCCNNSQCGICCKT
# Protocol: Samples of synthetic human hepcidin (100 to 500 ng) or synthetic mouse) hepcidin (500 ng) (Peptide International, Louisville, Ky., USA), or of […] sera from a patient with an inflammatory disease, or from a healthy volunteer, were used. In one experiment, one sample of synthetic human hepcidin (500 ng) was treated with Laemmli buffer. The samples were directly spotted onto the nitrocellulose membrane and allowed to dry overnight. Non-specific sites were blocked by soaking the membrane in 5% skim milk in TBS-T (1 hr, at room temperature).
# The primary antibodies (AN-LP1 antibody, or irrelevant antibody HPC4 directed against the epitope […] (SEQ ID NO: 11) of human protein C) were added at a dilution of 1:200 from a solution at 6 mg/ml. Incubation was performed for 2 h at room temperature or overnight at +4° C.
# After 3 washes with TBS-T, the membranes were incubated with the secondary antibody conjugated with horseradish peroxidase (1:5000) for 1 h at room temperature.
# [2] = target: T3, synthetic human hepcidin-25 (human); assay: SPR (BIAcore 2000), AN-LP1 immobilized on a CM5 chip, hepcidin 0.39 nM to 12.5 nM as analyte
# T3 construct: Synthetic peptide (Peptide International for the blots); Serum hepcidin and liver hepcidin detected by AN-LP1 are written under this molecule
# T3 peptide: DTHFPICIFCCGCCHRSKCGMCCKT
# Protocol: To estimate AN-LP1 affinity constant and the antibody-antigen interactions, surface plasmon resonance (SPR) measurements were performed with a BIAcore 2000 instrument using carboxymethylated dextran CM5 chips (BIAcore, Piscataway, N.J.). AN-LP1 mAb, dilued at 2 μg/ml in 5 mM maleate buffer (pH 5.75), was immobilized on the CM5 chips by amine coupling.
# Hepcidin was diluted in running buffer HBS-EP (0.01M HEPES pH 7.4; 0.15M NaCl, 3 mM EDTA and 0.005% polysorbate 20). Analyte was injected in 3 min, 60 μL/min injections and dissociation was monitored during 10 min. Surface Ab were generated by a 30-s to 1-min injection of glycine-HCL 10 mM pH 2. Kinetic rate constants were determined with purified antibodies. Concentrated hepcidin (0.39 nM to 12.5 nM) were injected over the chip surface at a rate of 60 μL/min to collect binding data. Data analyses were carried out with the BIAevaluation 3.0 software.
binder,measurement,setting,value
B1,binding result,[1],no binding
same,binding result,synthetic mouse hepcidin,no binding (tested: 500 ng)
same,Kd,[2],0.099 nM
